# Reference: patent US20130202594A1, “ALK1 Antagonists and Their Uses in Treating Renal Cell Carcinoma” (priority 2012, published 2013)
# Entries after “also recorded” stand apart in the source; their conditions may differ.
# Key:
# [1] = tested on: advanced RCC; details: cited from earlier work
# [2] = tested on: angiogenesis in chick chorioallantoic membrane; experiment: CAM (chick chorioallantoic membrane) angiogenesis assay; assay type: in vivo
# Description: In preferred embodiments, an ALK1 ECD polypeptide binds to one or more of GDF5, GDF6, GDF7, BMP9 and BMP10. […] Binding may be assessed using purified proteins in solution or in a surface plasmon resonance system, such as a Biacore™ system. […] Bioassays for angiogenesis inhibitory activity include the chick chorioallantoic membrane (CAM) assay, the mouse corneal micropocket assay, or an assay known in the art for measuring the effect of administering isolated or synthesized proteins on implanted tumors. The CAM assay is described by O'Reilly, et al., in “Angiogenic Regulation of Metastatic Growth” Cell, 1994; 79 (2):315-328. Briefly, 3 day old chicken embryos with intact yolks are separated from the egg and placed in a petri dish. After 3 days of incubation, a methylcellulose disc containing the protein to be tested is applied to the CAM of individual embryos. After 48 hours of incubation, the embryos and CAMs are observed to determine whether endothelial growth has been inhibited. The mouse corneal micropocket assay involves implanting a growth factor-containing pellet, along with another pellet containing the suspected endothelial growth inhibitor, in the cornea of a mouse and observing the pattern of capillaries that are elaborated in the cornea. Other assays are described in the Examples.
# VEGF and FGF are well-known to stimulate angiogenesis. A CAM (chick chorioallantoic membrane) assay system was used to assess the angiogenic effects of GDF7.
# ALK1-Fc fusions were tested for anti-angiogenic activity in the CAM assay.
# ALK1-Fc proteins and a commercially available, anti-angiogenic anti-VEGF monoclonal antibody were compared in the CAM assay. The ALK1-Fc proteins had similar potency as compared to anti-VEGF. The anti-VEGF antibody bevacizumab is currently used in the treatment of cancer and macular degeneration in humans.
# [3] = tested on: collagen-induced arthritis; experiment: Murine collagen-induced arthritis (CIA) model of rheumatoid arthritis; assay type: in vivo, mouse; details: bevacizumab treated mice; day 42
# Procedure: RAP-041 is mALK1-Fc. Avastin™ is the anti-VEGF antibody bevacizumab.
# The murine collagen-induced arthritis model is a well-accepted model of rheumatoid arthritis. […] Nonetheless, a dose-related trend is apparent.
# By study termination at day 42 the incidence of arthritis had reached 10/10 in the vehicle control treated mice, 9/10 in the bevacizumab treated mice, 8/10 in the mALK1-Fc at 1 mg/kg treated group and 9/10 in the mALK1-Fc 10 mg/kg treated group. In the mALK1-Fc 25 mg/kg treated group disease incidence was lower at 6/10.
# [4] = tested on: angiogenesis in chick chorioallantoic membrane; experiment: CAM assay of BMP9 and anti-BMP9 with or without VEGF; assay type: in vivo; details: for effect on angiogenesis in the presence of VEGF: VEGF-mediated angiogenesis
# Description: A CAM (chick chorioallantoic membrane) assay system was used to assess the angiogenic effects of recombinant human BMP9 (rhB9) and anti-BMP9 monoclonal antibody (mabB9) (R&D Systems, Minneapolis, Minn., Cat. No. MAB3209). This antibody is known to neutralize BMP9/ALK1 signaling. See, e.g., Scharpfenecker et al., J Cell Sci. 2007 Mar. 15; 120(Pt 6):964-72; David et al., (2007); Blood March 1; 109(5):1953-61; David et al., Circ. Res. 2008 Apr. 25; 102(8):914-22.
# In the absence of VEGF, both proteins were used at the 50 ng dosed 1×/day on days 1 and 3 in the 5-day cycle. […] However, the effects of the anti-BMP9 antibody are in remarkable contrast to the published literature.
molecule,measurement,setting,value
interferon-alpha,overall survival,[1]; patients with advanced disease,21.8 months
PDGF,angiogenic effect (stimulation of angiogenesis),[2],relatively poor capability to induce angiogenesis
CCN(CC)CCNC(=O)c1c(C)[nH]c(/C=C2\C(=O)Nc3ccc(F)cc32)c1C [sunitinib],patients requiring dose reductions,"[1]; RCC patients, to manage toxicities",50%
bevacizumab,incidence of arthritis,[3],9/10
"GDF7: growth differentiation factor, ALK1 ligand tested in CAM assay (protein) TALAGTRTAQGSGGGAGRGHGRRGRSRCSRKPLHVDFKELGWDDWIIAPLDYEAYHCEGLCDFPLRSHLEPTNHAIIQTLLNSMAPDAAPASCCVPARLSPISILYIDAANNVVYKQYEDMVVEACGCR",angiogenic effect (stimulation of angiogenesis),[2],stimulates angiogenesis with a potency that is similar to that of VEGF; also recorded: comparable to that of VEGF
rhB9: recombinant human BMP9 (protein) SAGAGSHCQKTSLRVNFEDIGWDSWIIAPKEYEAYECKGGCFFPLADDVTPTKHAIVQTLVHLKFPTKVGKACCVPTKLSPISVLYKDDMGVPTLKYHYEGMSVAECGCR,effect on angiogenesis in the absence of exogenous VEGF,[4]; 50 ng 1×/day on days 1 and 3,Neither BMP9 nor anti-BMP9 had a substantial effect on angiogenesis
same,effect on angiogenesis in the presence of VEGF,[4],inhibit VEGF-mediated angiogenesis
same,effect on angiogenesis in the presence of VEGF,[4]; listed as BMP9,substantial anti-angiogenic effect
same,angiogenic effect (stimulation of angiogenesis),[2],relatively poor capability to induce angiogenesis
